# Patent US20260259223A1 (NORDIC BIOSCIENCE A S, published 2026)
# Primed or numbered codes have the meaning given here. Where no end group is shown, it is not given here. Biotin′ = not defined here
# T1: Non-sense coating peptide YRDDLKKLLE-Biotin
# T1 construct: also called non-sense coater
# T1 peptide: YRDDLKKLLE-{Biotin′}
# T2: Truncated standard peptide (Truncated selection peptide) SGPEYADVV (human)
# T2 construct: also called truncated peptide
# T2 peptide: SGPEYADVV
# T3: Elongated standard peptide (Elongated selection peptide) QDSGPEYADVV (human)
# T3 construct: also called elongated peptide
# T3 peptide: QDSGPEYADVV
# T4: Non-sense standard peptide YRDDLKKLLE
# T4 construct: also called non-sense peptide
# T4 peptide: YRDDLKKLLE
# B1: Standard peptide (Selection peptide) DSGPEYADVV (peptide)
# peptide: DSGPEYADVV
# notes: Synthetic peptide from Genscript; also called C6A6
# B2: monoclonal antibody clone NBH-306-11 8E7-2C11-1F10-2C10 (antibody, mouse IgG1, kappa, V domains shown)
# VH: EVKLVESGGDLVKPGGSLKLSCAASGFTFTSYAMSWVRQTPEKRLEWVASVTSGGTHYLDSVKGRFTISRDIARNILYLQMSSLRSEDTAMYFCARGVSFAYWGQGTLVTVSA
# VL: DIVMTQSQKFMSTSVGDRVSVTCKASQNVGTDVVWYQQRPGQSPKALMYSASYRYSGVPDRFTGSGSGTDFTLTISNVQSEDLAEYFCQHYDNYPLTFGAGTKLELKR
# notes: also called the mAb; C6A6 assay antibody
# Key:
# [1] = target: B2; test: competitive CLIA: the free standard peptide competes with plate-coated …-K-Biotin for the HRP-labelled mAb (200 ng/mL)
# Experimental: The development of a competitive chemiluminescence immunoassay (CLIA) targeting the C6A6 target sequence included several preliminary optimizing experiments where reagents, concentrations, incubation-time and -temperature were analyzed by several tests. […] The relative light units were measured at all wavelengths within 5 min on a microplate luminometer reader (SpectraMax M5, Molecular Devices, CA, USA). […] Data were analyzed using the SoftMax Pro version 7.0.3 software.
# (§1) Two-fold dilutions of four human serum and two rat serum samples were used to assess linearity. Linearity was calculated as a percentage of recovery of the undiluted sample. Antibody specificity was calculated as percentage of signal inhibition by two-fold diluted standard peptide ([…] (SEQ ID NO: 1)), elongated peptide ([…] (SEQ ID NO: 2)), truncated peptide ([…] (SEQ ID NO: 3)), and non-sense peptide ([…] (SEQ ID NO: 17)). The intra- and inter-assay variation was determined by 10 independent runs of five quality controls and two kit controls run in double determinations.
# [2] = target: T1, Non-sense coating peptide …; test: CLIA/ELISA on a streptavidin plate coated with the non-sense coating peptide
# [3] = target: T2, Truncated standard peptide (Truncated …); test: competitive CLIA/ELISA (signal inhibition by two-fold diluted peptide)
# Experimental: (§2) The development of a competitive chemiluminescence immunoassay (CLIA) targeting the C6A6 target sequence included several preliminary optimizing experiments where reagents, concentrations, incubation-time and -temperature were analyzed by several tests. The final C6A6 competitive ELISA procedure was as follows: A 96-well streptavidin-coated white microplate (Greiner Bio-One, Kremsmünster, Austria) was coated with 3 ng/mL biotinylated synthetic peptide ([…]-K-Biotin (SEQ ID NO: 18)) dissolved in assay buffer (10 mM phosphate buffered saline (PBS), 1% bovine serum albumin, 0.1% Tween-20, 0.36% Bronidox, 4 g/L NaCl, adjusted to pH 7.4 at 20° C.) and incubated for 30 min at 20° C. with constant shaking (300 rpm) in darkness. Next, 20 μL/well of standard peptide (100 ng/ml) and samples were added to the appropriate wells, followed by the addition of 100 μL/well of HRP-labelled antibody (generated as described above) diluted in assay buffer to the concertation of 200 ng/ml and incubated for 1 h at 20° C. with constant shaking (300 rpm) in darkness. After each incubation step, wells were washed five times with standard washing buffer (20 mM Tris, 50 mM NaCl, pH 7.2). […] The relative light units were measured at all wavelengths within 5 min on a microplate luminometer reader (SpectraMax M5, Molecular Devices, CA, USA). […] Data were analyzed using the SoftMax Pro version 7.0.3 software.
# as §1
# [4] = target: T3, Elongated standard peptide (Elongated …); test: as above
# Experimental: as §2, §1
# [5] = target: T4, Non-sense standard peptide YRDDLKKLLE; test: as above
# Experimental: as §2, §1
# [6] = target: B1; test: ELISA screening of hybridoma clones / specificity test
IC50 [1],binding result [2],binding result [3],binding result [4],binding result [5],binding result [6],Binder
3.86 ng/mL,–,–,–,–,–,B1
–,no binding,no binding,no binding,no binding,binds,B2
